Data from patent publication US20130337438A1 (JAPAN HEALTH SCIENCES FOUNDATION, published 2013).

Experiments:
HPV35 L1/L2-capsid = target: T1, HPV35 L1/L2-capsid (human papillomavirus type 35, UniProt P27234 1-469; P27232 1-502); assay: ELISA on immobilized L1/L2-capsid, ascites 1:100
T1 construct: Capsid of co-expressed L1 and L2 from 293FT cells; The pseudovirus is the same capsid with a reporter plasmid; also called L1/L2-capsid of type 35; HPV35 pseudovirus
T1 sequence 1: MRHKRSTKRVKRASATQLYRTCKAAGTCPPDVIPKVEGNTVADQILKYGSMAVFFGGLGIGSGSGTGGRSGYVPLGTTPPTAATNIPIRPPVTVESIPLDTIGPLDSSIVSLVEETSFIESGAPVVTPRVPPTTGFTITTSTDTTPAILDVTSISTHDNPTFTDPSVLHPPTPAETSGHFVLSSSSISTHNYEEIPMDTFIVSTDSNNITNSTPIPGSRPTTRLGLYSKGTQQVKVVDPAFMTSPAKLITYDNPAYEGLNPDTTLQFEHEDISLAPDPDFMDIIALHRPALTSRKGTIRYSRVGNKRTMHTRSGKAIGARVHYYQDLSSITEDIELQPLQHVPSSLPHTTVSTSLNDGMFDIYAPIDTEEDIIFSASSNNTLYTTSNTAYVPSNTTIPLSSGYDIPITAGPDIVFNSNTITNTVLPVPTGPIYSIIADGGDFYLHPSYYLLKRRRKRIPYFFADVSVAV
T1 sequence 2: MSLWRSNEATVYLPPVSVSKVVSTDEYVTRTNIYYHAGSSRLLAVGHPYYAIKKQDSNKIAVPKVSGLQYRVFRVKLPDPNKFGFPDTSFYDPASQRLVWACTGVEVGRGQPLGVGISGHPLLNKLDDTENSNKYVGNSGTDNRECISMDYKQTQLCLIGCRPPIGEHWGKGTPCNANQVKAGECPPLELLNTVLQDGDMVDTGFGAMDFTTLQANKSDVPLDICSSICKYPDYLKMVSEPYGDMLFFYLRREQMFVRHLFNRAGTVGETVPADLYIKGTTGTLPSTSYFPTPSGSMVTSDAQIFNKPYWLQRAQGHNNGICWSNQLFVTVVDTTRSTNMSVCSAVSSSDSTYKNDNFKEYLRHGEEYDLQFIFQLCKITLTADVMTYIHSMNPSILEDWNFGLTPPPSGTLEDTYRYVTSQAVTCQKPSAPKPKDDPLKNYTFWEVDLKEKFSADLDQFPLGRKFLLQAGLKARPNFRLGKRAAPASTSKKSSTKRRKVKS

HPV51 L1/L2-capsid = target: T2, HPV51 L1/L2-capsid (human papillomavirus type 51, UniProt P26539 1-468; P26536 1-504); assay: ELISA on immobilized L1/L2-capsid, purified antibody 250 ng/well
T2 construct: Capsid of co-expressed L1 and L2 from 293FT cells; The pseudovirus is the same capsid with a reporter plasmid; also called L1/L2-capsid of type 51; HPV51 pseudovirus
T2 sequence 1: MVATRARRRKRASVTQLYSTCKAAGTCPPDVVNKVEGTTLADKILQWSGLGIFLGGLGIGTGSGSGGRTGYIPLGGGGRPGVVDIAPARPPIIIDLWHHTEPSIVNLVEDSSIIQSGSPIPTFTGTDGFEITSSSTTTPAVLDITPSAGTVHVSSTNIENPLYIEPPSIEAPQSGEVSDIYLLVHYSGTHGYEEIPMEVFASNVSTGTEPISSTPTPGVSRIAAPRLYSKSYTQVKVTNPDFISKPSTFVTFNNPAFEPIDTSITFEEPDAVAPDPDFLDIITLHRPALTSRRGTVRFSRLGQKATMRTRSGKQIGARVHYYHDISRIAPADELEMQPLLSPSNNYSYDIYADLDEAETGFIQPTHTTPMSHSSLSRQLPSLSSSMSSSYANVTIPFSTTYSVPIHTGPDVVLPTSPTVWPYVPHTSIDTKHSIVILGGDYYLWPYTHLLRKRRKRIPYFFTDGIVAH
T2 sequence 2: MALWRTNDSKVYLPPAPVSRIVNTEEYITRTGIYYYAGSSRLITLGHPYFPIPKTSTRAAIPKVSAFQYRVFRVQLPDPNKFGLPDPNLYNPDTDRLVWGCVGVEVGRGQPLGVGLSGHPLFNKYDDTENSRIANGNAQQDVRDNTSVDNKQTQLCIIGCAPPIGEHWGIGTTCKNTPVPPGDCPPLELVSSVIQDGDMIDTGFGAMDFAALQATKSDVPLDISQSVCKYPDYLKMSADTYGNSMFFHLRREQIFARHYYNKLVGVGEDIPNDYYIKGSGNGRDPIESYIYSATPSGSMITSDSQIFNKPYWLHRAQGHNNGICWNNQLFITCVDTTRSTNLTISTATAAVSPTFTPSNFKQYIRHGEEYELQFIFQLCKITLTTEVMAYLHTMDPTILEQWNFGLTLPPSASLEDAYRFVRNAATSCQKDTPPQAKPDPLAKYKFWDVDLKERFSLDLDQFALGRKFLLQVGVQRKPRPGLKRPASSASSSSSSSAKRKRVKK

B1: monoclonal antibody 24B (antibody, V domains shown)
VH: EVQLQQSGTVLARPGASVKMSCKASVYSFPSNWMHWVKQRPGQGLEWIGAIYPGTGATRYNQKFKDKAKLTAVTSADTAYMELSSLTDEDSAVYYCTGYSLYWGQGTILTVSS
VL: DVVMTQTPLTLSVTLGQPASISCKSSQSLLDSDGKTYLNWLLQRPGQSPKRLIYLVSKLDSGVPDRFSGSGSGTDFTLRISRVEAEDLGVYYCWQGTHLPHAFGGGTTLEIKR
notes: Used as mouse ascites or as antibody purified from ascites; also called Mouse-Mouse hybridoma 24B (FERM BP-11305)
B1: binds (HPV35 L1/L2-capsid).

B2: monoclonal antibody 13B (antibody, V domains shown)
VH: DVQLQESGPGLVKPSQSLSLSCTVTGYSITSDSAWNWIRQFPGNKLEWMGYITFSGSTNYNPSLKSRLSITRDTSKNQFFLQLNSVTTEDTATYYCTGPFLDYWGQGTTLTVSS
VL: DVVMTQTPLSLPVSLGDQATISCRSSLSLVLSNRITYLQWYLQKPGQSPKLLIYKVSNRFSGVPDRFSGSGSGTDFTLKISRVEAEDLGVYFCSQSSHFPWTFGGGTKLEIKR
notes: Used as mouse ascites or as antibody purified from ascites; also called Mouse-Mouse hybridoma 13B (FERM BP-11304)
B2: binds (HPV51 L1/L2-capsid).
